# Laboratory results as given in IntAct's records for PubMed 23001144.
# B1: Translocated intimin receptor Tir (Escherichia coli O157:H7), Q7DB77 (parent)
# chain: MPIGNLGHNPNVNNSIPPAPPLPSQTDGAGGRGQLINSTGPLGSRALFTPVRNSMADSGDNRASDVPGLPVNPMRLAASEITLNDGFEVLHDHGPLDTLNRQIGSSVFRVETQEDGKHIAVGQRNGVETSVVLSDQEYARLQSIDPEGKDKFVFTGGRGGAGHAMVTVASDITEARQRILELLEPKGTGESKGAGESKGVGELRESNSGAENTTETQTSTSTSSLRSDPKLWLALGTVATGLIGLAATGIVQALALTPEPDSPTTTDPDAAASATETATRDQLTKEAFQNPDNQKVNIDELGNAIPSGVLKDDVVANIEEQAKAAGEEAKQQAIENNAQAQKKYDEQQAKRQEELKVSSGAGYGLSGALILGGGIGVAVTAALHRKNQPVEQTTTTTTTTTTTSARTVENKPANNTPAQGNVDTPGSEDTMESRRSSMASTSSTFFDTSSIGTVQNPYADVKTSLHDSQVPTSNSNTSVQNMGNTDSVVYSTIQHPPRDTTDNGARLLGNPSAGIQSTYARLALSGGLRHDMGGLTGGSNSAVNTSNNPPAPGSHRFV
# B2: Translocated intimin receptor Tir (Escherichia coli O127:H6 (strain E2348/69 / EPEC)), B7UM99 (parent)
# chain: MPIGNLGNNVNGNHLIPPAPPLPSQTDGAARGGTGHLISSTGALGSRSLFSPLRNSMADSVDSRDIPGLPTNPSRLAAATSETCLLGGFEVLHDKGPLDILNTQIGPSAFRVEVQADGTHAAIGEKNGLEVSVTLSPQEWSSLQSIDTEGKNRFVFTGGRGGSGHPMVTVASDIAEARTKILAKLDPDNHGGRQPKDVDTRSVGVGSASGIDDGVVSETHTSTTNSSVRSDPKFWVSVGAIAAGLAGLAATGIAQALALTPEPDDPTTTDPDQAANAAESATKDQLTQEAFKNPENQKVNIDANGNAIPSGELKDDIVEQIAQQAKEAGEVARQQAVESNAQAQQRYEDQHARRQEELQLSSGIGYGLSSALIVAGGIGAGVTTALHRRNQPAEQTTTTTTHTVVQQQTGGNTPAQGGTDATRAEDASLNRRDSQGSVASTHWSDSSSEVVNPYAEVGGARNSLSAHQPEEHIYDEVAADPGYSVIQNFSGSGPVTGRLIGTPGQGIQSTYALLANSGGLRLGMGGLTSGGESAVSSVNAAPTPGPVRFV
# Variants of: B1
# Conditions: with ptn6_human PTPN6, P29350
row,Variant,effect of a mutation on the interaction
1,Y490F;Y519F,decreasing interaction

# Variants of: B2
# Conditions: with ptn6_human PTPN6, P29350
# Target sequence in this assay (P29350 whole entry): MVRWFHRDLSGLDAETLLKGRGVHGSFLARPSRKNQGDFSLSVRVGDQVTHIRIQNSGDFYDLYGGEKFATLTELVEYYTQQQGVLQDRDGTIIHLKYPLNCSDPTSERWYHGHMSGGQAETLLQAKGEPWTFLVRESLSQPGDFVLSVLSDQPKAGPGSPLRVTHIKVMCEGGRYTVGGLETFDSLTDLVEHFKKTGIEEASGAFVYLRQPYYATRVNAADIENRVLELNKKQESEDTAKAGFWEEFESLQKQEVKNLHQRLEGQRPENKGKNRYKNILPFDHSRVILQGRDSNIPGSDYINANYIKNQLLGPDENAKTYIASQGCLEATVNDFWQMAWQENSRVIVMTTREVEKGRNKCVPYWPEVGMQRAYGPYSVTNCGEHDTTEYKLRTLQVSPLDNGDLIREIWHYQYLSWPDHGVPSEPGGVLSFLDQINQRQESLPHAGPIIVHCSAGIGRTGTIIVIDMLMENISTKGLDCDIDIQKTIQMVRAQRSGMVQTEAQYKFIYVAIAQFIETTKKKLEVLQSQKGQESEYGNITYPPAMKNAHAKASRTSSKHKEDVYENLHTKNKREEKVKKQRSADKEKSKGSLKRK
row,Variant,effect of a mutation on the interaction
1,Y483F;Y511F,decreasing interaction
2,Y483F,decreasing interaction
3,Y511F,decreasing interaction

# Variants of: B2
# Conditions: with ptn6_mouse Ptpn6, P29351
# Sequence of ptn6_mouse Ptpn6, P29351 (P29351 whole entry): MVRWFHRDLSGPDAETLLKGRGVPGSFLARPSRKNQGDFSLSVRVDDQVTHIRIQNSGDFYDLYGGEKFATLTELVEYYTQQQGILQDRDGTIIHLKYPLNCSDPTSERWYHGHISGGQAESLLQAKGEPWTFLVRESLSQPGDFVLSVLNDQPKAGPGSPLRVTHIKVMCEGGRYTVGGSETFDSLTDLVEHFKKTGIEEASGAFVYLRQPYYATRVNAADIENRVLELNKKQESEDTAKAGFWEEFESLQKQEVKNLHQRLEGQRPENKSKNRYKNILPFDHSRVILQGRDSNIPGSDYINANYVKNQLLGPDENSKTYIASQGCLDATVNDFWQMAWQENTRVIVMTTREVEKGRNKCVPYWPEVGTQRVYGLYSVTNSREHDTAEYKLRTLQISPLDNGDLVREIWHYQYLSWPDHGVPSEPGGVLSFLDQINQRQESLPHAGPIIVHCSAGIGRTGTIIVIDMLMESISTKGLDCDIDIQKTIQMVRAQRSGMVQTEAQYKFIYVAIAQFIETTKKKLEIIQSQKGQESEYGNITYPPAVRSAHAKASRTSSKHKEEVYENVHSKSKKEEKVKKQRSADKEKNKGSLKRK
row,Variant,effect of a mutation on the interaction
1,Y483F;Y511F,decreasing interaction
